10 molecules from paper PMC9234716, “Comparative analysis defines a broader FMRFamide-gated sodium channel family and determinants of neuropeptide sensitivity” (The Journal of Biological Chemistry, 2022) can be followed below.

Where a chain is given by its changes, count along the chain named. Where no end group is shown, it is not given here.

For one experiment, the system named is Capitella FaNaC^52833. Nature of the experiment: Two-electrode voltage clamp of Xenopus oocytes expressing Capitella FaNaC 52833. It counts as cell-based, Capitella teleta. To be noted: WT; LFRYa 30 μM. Here is the method: (§1) Defolliculated stage V/VI oocytes from X. laevis were commercially acquired (Ecocyte Bioscience) and stored at 18 °C in 50% (in water) Leibovitz’s L-15 medium (Gibco) supplemented with additional 0.25 mg/ml gentamicin, 1 mM L-glutamine, and 15 mM Hepes, pH 7.6. Oocytes were injected with 2 ng cRNA (WT or mutant Aplysia FaNaC) and 2 to 60 ng cRNA (WT C. gigas XM_011442205.2, O. bimaculoides XM_014930938.1, L. gigantea XM_009055314.1_160261, P. fucata pfu_aug2.0_4392.1_09318.t1, C. teleta Capca1_207658, Capca1_52833, Capca1_185559, and Capca1_212912, M. lignano Mlig049925.g2, Mlig051885.g1, and Mlig041003.g1, P. australis g6004.t1 and g5063.t1 and R. norvegicus NP_077068.1 (rat ASIC1a) and respective mutants). Two-electrode voltage clamp experiments were performed 1 to 3 days after injection. The oocyte was placed in an RC-3Z bath (Warner Instruments) and bath solution (NaCl: 96 mM, KCl: 2 mM, CaCl2: 1.8 mM, MgCl2: 1 mM, Hepes: 5 mM; pH: 7.5) was perfused continuously and rapidly switched to bath solution containing peptide ligands via the VCS-8-pinch valve control perfusion system (Warner Instruments). […] Peptides were applied at varying concentrations between 30 nM and 100 μM for concentration-response experiments. […] Current recordings were analyzed in Clampfit 11.1 (Molecular Devices). […]
Background: Two-electrode voltage clamp is typically applied to oocytes expressing channels or transporters.

A further experiment deals with Capitella WaNaC^212912. Description: Two-electrode voltage clamp of Xenopus oocytes expressing Capitella WaNaC 212912. In kind it is cell-based, Capitella teleta. The protocol: as §1
In experiment [1] the test system is Malacoceros WaNaC^ON156824. Nature of the experiment: Two-electrode voltage clamp of Xenopus oocytes expressing Malacoceros WaNaC ON156824. As to conditions: WT channel, n = 9, mean ± SEM, read-out: KWGGNSRMWa EC50. In kind it is cell-based, Malacoceros fuliginosus.
Another experiment relates to Crassostrea FaNaC. Nature of the experiment: Peptide-gated currents at oocytes expressing Crassostrea FaNaC. It counts as cell-based, Crassostrea gigas. As to conditions: peptides at 100 μM. The source says:
(§2) Figure 1 Phylogenetic and experimental characterization of the FaNaC family.A, FaNaC branch from DEG/ENaC phylogeny (full phylogeny in Fig. S1). ∗Genes tested here. ∞Genes tested elsewhere. Genes in bold encode peptide-gated channels. aLRT support for key branches is shown. Blue background, broader FaNaC family; green background, annelid-specific branch of FaNaCs with diverse ligand sensitivity; pink background, Wamide-activated channels (WaNaCs). B, example peptide-gated currents at Xenopus oocytes expressing indicated genes. All peptide applications 100 μM, except for some at Capitella FaNaC: FMRFa, FLRPa, FLRFa, and FMKFa (3 μM); LFRYa (30 μM). The scale bars represent x, 10 s; y, 5 μA. C, mean (± SEM) normalized current response to different peptides (concentrations as in (B)) at oocytes expressing indicated channels. Lighter symbols are individual data points, n = 4 to 7. FaNaC, FMRFa-gated sodium channel; FMRFa, Phe-Met-Arg-Phe-amide.

For a further experiment, the system named is Octopus FaNaC. Description: Peptide-gated currents at oocytes expressing Octopus FaNaC. In kind it is cell-based, Octopus bimaculoides. To be noted: peptides at 100 μM.
From the text: as §2

Experiment [2] deals with T1, rat ASIC1a (Rattus norvegicus, UniProt P55926, S274A).
T1 construct: R. norvegicus NP_077068.1 (rat ASIC1a) and respective mutants; expressed in transfected cells; host or cells: Xenopus laevis oocytes (cRNA injection)
T1 sequence (P55926 1-526 S274A): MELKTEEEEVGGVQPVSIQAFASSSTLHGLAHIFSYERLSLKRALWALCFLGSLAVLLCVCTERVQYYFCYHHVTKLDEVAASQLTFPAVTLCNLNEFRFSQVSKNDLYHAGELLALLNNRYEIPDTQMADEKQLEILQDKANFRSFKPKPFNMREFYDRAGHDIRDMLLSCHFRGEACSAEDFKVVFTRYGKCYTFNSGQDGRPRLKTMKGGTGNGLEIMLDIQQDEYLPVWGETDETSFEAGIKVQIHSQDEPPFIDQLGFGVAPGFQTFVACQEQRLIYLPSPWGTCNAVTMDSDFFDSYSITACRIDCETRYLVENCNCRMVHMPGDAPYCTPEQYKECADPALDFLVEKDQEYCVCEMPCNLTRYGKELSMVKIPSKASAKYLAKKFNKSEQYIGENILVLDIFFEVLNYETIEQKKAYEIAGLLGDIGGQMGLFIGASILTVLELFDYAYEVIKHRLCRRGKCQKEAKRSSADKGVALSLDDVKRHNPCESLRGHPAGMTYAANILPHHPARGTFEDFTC
Nature of the experiment: FRRFa enhancement of pH-gated currents at oocytes expressing WT or mutant rat ASIC1a. In kind it is cell-based. To be noted: S274A mutant; 50 μM FRRFa; n = 6. The protocol: (§3) Figure 6 Determinants of FRRFa modulation of rat ASIC1a.A, pH 5.3 (filled black bars)-gated currents after preincubation in desensitizing pH (unfilled bars) alone or in 50 μM FRRFa (blue bars) at oocytes expressing WT or mutant rat ASIC1a (rASIC1a). The scale bars represent x, 10 s; y, 200 nA. Desensitizing pH described in Figure S4. B, mean (± SEM, n = 4–7) enhancement (currentb/currenta from (A)) of desensitized current amplitude by 50 μM FRRFa at indicated rat ASIC1a mutants. ASIC, acid-sensing ion channel.
(§4) Figure S4. Measurement of steady state desensitization and peptide modulation of rat ASIC1a mutants. (A) Left, example currents at an oocyte expressing a rat ASIC1a mutant in response to decreasing pH. Right, mean (± SEM, n = 3-4) normalized currents in response to decreasing pH. (B) Left, example currents at an oocyte expressing a rat ASIC1a mutant in response to pH 5.3 after pre-incubation in decreasing pH. Right, mean (± SEM, n = 3-4) normalized currents in response to decreasing pre-incubation pH. This established that pH 6.9 was strongly desensitizing for WT and most mutants, and pH 6.7 was strongly desensitizing for mutants K246A and V377A. (C) Example experiment showing: current response to activating pH (5.3) after pre-incubation in resting pH 7.8; current response ("a") to activating pH after 20 s pre-incubation in desensitizing pH (6.7 for this mutant); and current response ("b") to activating pH after 20 s pre-incubation in desensitizing pH plus 50 μM FRRFa. Dividing current amplitude "b" by that of "a" gives fold-enhancement by FRRFa in Fig. 6B. All scale bars: x, 10 s; y, 10 μA.

Experiment [3] has as its target T2, rat ASIC1a (Rattus norvegicus, UniProt P55926, K246A).
T2 construct: R. norvegicus NP_077068.1 (rat ASIC1a) and respective mutants; expressed in transfected cells; host or cells: Xenopus laevis oocytes (cRNA injection)
T2 sequence (P55926 1-526 K246A): T1 sequence (P55926 1-526 S274A) with K246A, A274S
The description is as above. In kind it is cell-based. As to conditions: K246A mutant; 50 μM FRRFa; n = 6. Here is the method:
as §3, §4

Experiment [4] has as its target T3, rat ASIC1a (Rattus norvegicus, UniProt P55926).
T3 construct: R. norvegicus NP_077068.1 (rat ASIC1a) and respective mutants; expressed in transfected cells; host or cells: Xenopus laevis oocytes (cRNA injection)
T3 sequence (P55926 1-526): T1 sequence (P55926 1-526 S274A) with A274S
The experiment is described as above. It counts as cell-based. As to conditions: WT; 50 μM FRRFa; pH 5.3 after preincubation in desensitizing pH; n = 7. Here is the method: as §3, §4

Experiment [5] concerns the target Capitella teleta WaNaC^212912 (Wamide-gated sodium channel) (Capitella teleta).
For experiment [6], the target named is T4, rat ASIC1a (acid-sensing ion channel 1a) (rat) (UniProt P55926).
T4 sequence: T1 sequence (P55926 1-526 S274A) with A274S

Another experiment addresses T5, rat ASIC1a S274A (rat) (UniProt P55926).
T5 sequence: T1 sequence (P55926 1-526 S274A)

The target in experiment [7] is Aplysia kurodai FaNaC S184A (Aplysia kurodai).
The target in experiment [8] is Aplysia kurodai FaNaC (FMRFa-gated sodium channel) (Aplysia kurodai).
In experiment [9] the target is Malacoceros fuliginosus FaNaC^ON156825 (Malacoceros fuliginosus).
The target of experiment [10] is Capitella teleta FaNaC^52833 (Capitella teleta).
Experiment [11] has as its target Malacoceros fuliginosus FaNaC^ON156826 (Malacoceros fuliginosus).
The target of experiment [12] is Malacoceros fuliginosus WaNaC^ON156824 (Malacoceros fuliginosus).

For “LFRYa: product of the RYamide propeptide from Capitella (LFRY-NH2)”, the “current response to peptide” value in the experiment with Capitella FaNaC^52833 is reported as “small currents”.
One may read the EC50 as the concentration giving half of the maximal effect. On to AWVGDKSLSW-NH2 [AWVGDKSLSWa], for which, in the experiment with Capitella WaNaC^212912 (R255Q, R291N and R472Q mutations), the AWVGDKSLSWa-gated currents entry was “abolished”. In addition, the EC50 with Capitella WaNaC^212912 (WT channel, Xenopus oocytes, n = 8, mean ± SEM, read-out: AWVGDKSLSWa EC50) was determined as 2000 ± 200 nM.
For the molecule KWGGNSRMW-NH2 [KWGGNSRMWa], in [1], the EC50 was found to be 340 ± 100 nM.
In the case of “FLRFa: peptide encoded by the Octopus FMRFa propeptide (FLRF-NH2)”, the “current amplitude relative to FMRFa” value in the experiment on Crassostrea FaNaC is reported as “slightly larger currents than FMRFa”; with Octopus FaNaC it was “larger currents than FMRFa”.
As for “FRRFa: synthetic FMRFa analog that enhances ASICs (FRRF-NH2)”, the entries for the “enhancement of pH-gated currents” value with rat ASIC1a [2], with rat ASIC1a [3] and in the experiment with rat ASIC1a [4] were 2 ± 0.3 fold, “not ostensibly enhanced at all” and 10 ± 3 fold, respectively.
Turning to “FMKFa: peptide encoded by the Octopus FMRFa propeptide (FMKF-NH2)”, in the experiment on Octopus FaNaC, the “current amplitude relative to FMRFa” value is “larger currents than FMRFa”.
In experiment [5], AWVGDKSLSW-NH2 yielded an EC50 of peptide-gated current, two-electrode voltage clamp on Xenopus oocytes of 2 µM.
In the case of FRRF-NH2 [FRRFa], the fold enhancement of desensitized pH 5.3-gated current by 50 μM FRRFa, two-electrode voltage clamp on Xenopus oocytes in experiment [6] is 10 fold; with rat ASIC1a S274A (rat), 2 fold.
In turn, FMRF-NH2 [FMRFamide (Phe-Met-Arg-Phe-amide)] yielded an EC50 of FMRFa-gated current, full concentration-response, two-electrode voltage clamp on Xenopus oocytes in experiment [7] of 30 µM. Also, the EC50 of FMRFa-gated current, two-electrode voltage clamp on Xenopus oocytes in experiment [8] came to 3.4 µM. Further, the I (3 μM)/I (30 μM) ratio of FMRFa potency (3 μM FMRFa-gated current amplitude/30 μM FMRFa-gated current amplitude) in [8] is 0.64. Also, the EC50 of peptide-gated current, two-electrode voltage clamp on Xenopus oocytes in experiment [9] worked out at 230 nM; in [10], 350 nM; in experiment [11] it was 11 µM.
KWGGNSRMW-NH2 registered an EC50 of peptide-gated current, two-electrode voltage clamp on Xenopus oocytes in experiment [12] of 340 nM.
